Biological target: exonuclease V (ExoV) of E. coli, a component of RecBCD holoenzyme (E. coli) (UniProt P08394)
Assay: cell-based or functional assay

UniProt P08394, sequence (P08394 2-1180 limits assumed, chain 1 of 3): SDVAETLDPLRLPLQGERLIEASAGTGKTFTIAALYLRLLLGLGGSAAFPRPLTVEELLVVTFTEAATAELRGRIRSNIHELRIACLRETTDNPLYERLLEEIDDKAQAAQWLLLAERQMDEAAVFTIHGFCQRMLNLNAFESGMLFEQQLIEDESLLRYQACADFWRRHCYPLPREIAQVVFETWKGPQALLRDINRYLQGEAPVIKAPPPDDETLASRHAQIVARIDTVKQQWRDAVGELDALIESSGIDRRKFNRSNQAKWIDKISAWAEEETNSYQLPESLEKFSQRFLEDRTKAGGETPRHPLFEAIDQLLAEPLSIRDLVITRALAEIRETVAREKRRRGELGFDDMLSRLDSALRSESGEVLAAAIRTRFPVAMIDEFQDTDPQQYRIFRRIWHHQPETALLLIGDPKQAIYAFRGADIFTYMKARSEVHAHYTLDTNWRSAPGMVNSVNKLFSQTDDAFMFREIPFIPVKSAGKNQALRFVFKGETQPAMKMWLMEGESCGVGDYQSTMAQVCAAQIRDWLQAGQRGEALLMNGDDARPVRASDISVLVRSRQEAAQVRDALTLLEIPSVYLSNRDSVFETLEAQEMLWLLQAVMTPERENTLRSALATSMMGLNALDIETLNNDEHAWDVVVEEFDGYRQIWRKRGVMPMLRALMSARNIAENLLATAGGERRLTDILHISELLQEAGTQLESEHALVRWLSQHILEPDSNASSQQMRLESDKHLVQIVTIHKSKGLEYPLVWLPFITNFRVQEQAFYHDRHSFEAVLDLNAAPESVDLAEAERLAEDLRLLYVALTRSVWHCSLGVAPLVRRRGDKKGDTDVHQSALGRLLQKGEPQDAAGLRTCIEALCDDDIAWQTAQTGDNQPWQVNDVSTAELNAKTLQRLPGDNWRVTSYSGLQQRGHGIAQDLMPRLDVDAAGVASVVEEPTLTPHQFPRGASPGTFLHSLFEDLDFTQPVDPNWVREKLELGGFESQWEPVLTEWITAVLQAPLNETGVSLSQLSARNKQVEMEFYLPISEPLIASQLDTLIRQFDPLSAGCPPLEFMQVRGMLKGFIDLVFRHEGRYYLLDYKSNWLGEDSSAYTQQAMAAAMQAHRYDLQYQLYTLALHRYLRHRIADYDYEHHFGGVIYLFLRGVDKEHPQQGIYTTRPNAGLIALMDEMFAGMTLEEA
UniProt P08394, sequence (P07648 whole entry, chain 2 of 3, further chain): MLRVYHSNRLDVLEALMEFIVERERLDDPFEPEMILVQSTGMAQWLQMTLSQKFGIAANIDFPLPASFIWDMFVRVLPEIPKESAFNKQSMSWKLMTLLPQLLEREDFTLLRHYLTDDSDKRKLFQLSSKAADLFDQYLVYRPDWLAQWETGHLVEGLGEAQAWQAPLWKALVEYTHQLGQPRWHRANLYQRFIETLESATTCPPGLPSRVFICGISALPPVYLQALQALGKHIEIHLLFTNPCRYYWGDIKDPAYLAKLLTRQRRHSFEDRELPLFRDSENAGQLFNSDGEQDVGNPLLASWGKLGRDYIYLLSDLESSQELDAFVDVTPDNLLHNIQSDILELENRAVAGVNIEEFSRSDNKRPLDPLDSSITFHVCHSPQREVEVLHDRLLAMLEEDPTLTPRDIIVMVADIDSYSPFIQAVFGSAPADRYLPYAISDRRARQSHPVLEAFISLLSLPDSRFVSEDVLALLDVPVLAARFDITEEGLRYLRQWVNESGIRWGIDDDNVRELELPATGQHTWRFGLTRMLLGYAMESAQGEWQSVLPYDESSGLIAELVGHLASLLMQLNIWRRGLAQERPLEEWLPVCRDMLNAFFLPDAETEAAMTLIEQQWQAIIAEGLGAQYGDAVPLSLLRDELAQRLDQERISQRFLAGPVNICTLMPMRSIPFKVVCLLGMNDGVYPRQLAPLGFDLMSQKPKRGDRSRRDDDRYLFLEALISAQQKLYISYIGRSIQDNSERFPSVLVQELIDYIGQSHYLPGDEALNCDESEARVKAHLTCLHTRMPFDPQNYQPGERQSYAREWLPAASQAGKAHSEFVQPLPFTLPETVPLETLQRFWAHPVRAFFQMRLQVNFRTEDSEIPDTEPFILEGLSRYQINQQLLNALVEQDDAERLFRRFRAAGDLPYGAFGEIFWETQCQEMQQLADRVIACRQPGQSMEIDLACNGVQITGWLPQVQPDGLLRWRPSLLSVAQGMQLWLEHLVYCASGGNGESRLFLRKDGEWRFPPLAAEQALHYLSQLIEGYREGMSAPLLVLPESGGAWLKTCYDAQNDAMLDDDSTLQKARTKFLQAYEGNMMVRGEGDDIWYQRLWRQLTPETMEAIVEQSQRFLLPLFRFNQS
UniProt P08394, sequence (P04993 whole entry, chain 3 of 3, further chain): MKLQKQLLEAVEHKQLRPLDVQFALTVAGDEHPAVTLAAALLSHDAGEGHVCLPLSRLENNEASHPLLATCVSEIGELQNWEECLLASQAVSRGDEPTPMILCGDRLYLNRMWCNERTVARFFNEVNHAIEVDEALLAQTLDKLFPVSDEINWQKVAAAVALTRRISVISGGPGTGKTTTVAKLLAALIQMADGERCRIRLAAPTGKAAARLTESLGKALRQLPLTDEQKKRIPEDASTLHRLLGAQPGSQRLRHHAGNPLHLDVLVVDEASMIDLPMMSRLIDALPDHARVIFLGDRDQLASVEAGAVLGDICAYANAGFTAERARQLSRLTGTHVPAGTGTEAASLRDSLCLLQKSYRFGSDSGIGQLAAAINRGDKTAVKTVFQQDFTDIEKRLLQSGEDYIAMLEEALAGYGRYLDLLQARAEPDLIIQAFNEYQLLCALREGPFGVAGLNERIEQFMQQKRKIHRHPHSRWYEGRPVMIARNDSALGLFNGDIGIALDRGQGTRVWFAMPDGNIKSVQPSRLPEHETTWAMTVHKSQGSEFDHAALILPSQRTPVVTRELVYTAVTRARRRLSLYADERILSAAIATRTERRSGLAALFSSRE

“GamS protein of bacteriophage lambda with C-terminal 6His tag (from UniProt P03702 41-138)” showed a GFP expression from linear template in batch IVT with co-expressed GamS plasmid template (Coomassie staining of gel) greater than 2 fold, a GFP expression from linear template in batch IVT with crude GamS (PAGE, Coomassie), against control reaction without GamS of 2 fold and a GFP protein synthesis from a linear template in batch mode IVT (Coomassie staining of gel), against control reactions lacking GamS of 3 fold.

— US20040235029A1
